B1: RAB22A (parent)
chain: FVEDSFDPNINPTIGASFMTKTVQ
B2: YPEL3 (parent)
chain: SKPKTFQAYLDDCHRRYSCAHCRA

Variants of: B1
Assay: protein stability index of a GFP-peptide fusion (GPS, HEK-293T) (PSI 1-6); higher = more stable
Conditions: c terminus: a fixed tail appended
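Note: lentivirally expressed fusions sorted by FACS into six bins by GFP to DsRed ratio, PSI derived from sequencing read proportions per bin multiplied by bin number.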

Variant	protein stability index
FVEDIFDPNINPTIGASFMTKTVQ [S5I]	2.18
FVEDMFDPNINPTIGASFMTKTVQ [S5M]	1.99
FVEDAFDPNINPTIGASFMTKTVQ [S5A]	2.16
FVEDHFDPNINPTIGASFMTKTVQ [S5H]	1.74
FVEDKFDPNINPTIGASFMTKTVQ [S5K]	2.1
FVEDRFDPNINPTIGASFMTKTVQ [S5R]	1.93
FVEDQFDPNINPTIGASFMTKTVQ [S5Q]	2.65
FVEDLFDPNINPTIGASFMTKTVQ [S5L]	1.97
FVEDGFDPNINPTIGASFMTKTVQ [S5G]	2.08
FVEDDFDPNINPTIGASFMTKTVQ [S5D]	3.27
FVEDPFDPNINPTIGASFMTKTVQ [S5P]	1.96
FVEDFFDPNINPTIGASFMTKTVQ [S5F]	2.92
FVEDCFDPNINPTIGASFMTKTVQ [S5C]	2.03
FVEDEFDPNINPTIGASFMTKTVQ [S5E]	3.63
FVEDNFDPNINPTIGASFMTKTVQ [S5N]	2.64
FVEPSFDPNINPTIGASFMTKTVQ [D4P]	1.78
FVEVSFDPNINPTIGASFMTKTVQ [D4V]	2.36
FVEFSFDPNINPTIGASFMTKTVQ [D4F]	3.14
FVEYSFDPNINPTIGASFMTKTVQ [D4Y]	2.98
FVESSFDPNINPTIGASFMTKTVQ [D4S]	1.65
FVEESFDPNINPTIGASFMTKTVQ [D4E]	2.52
FVEMSFDPNINPTIGASFMTKTVQ [D4M]	2.23
FVEASFDPNINPTIGASFMTKTVQ [D4A]	1.63

Variant	protein stability index
FVEWSFDPNINPTIGASFMTKTVQ [D4W]	2.1
FVEHSFDPNINPTIGASFMTKTVQ [D4H]	1.36
FVEGSFDPNINPTIGASFMTKTVQ [D4G]	2.02
FVENSFDPNINPTIGASFMTKTVQ [D4N]	2.23
FVECSFDPNINPTIGASFMTKTVQ [D4C]	1.66
FVEQSFDPNINPTIGASFMTKTVQ [D4Q]	1.82
FVEISFDPNINPTIGASFMTKTVQ [D4I]	3.06
FVELSFDPNINPTIGASFMTKTVQ [D4L]	2.38
FVETSFDPNINPTIGASFMTKTVQ [D4T]	1.89
FVERSFDPNINPTIGASFMTKTVQ [D4R]	1.7
FVEKSFDPNINPTIGASFMTKTVQ [D4K]	1.52
FVRDSFDPNINPTIGASFMTKTVQ [E3R]	2.54
FVNDSFDPNINPTIGASFMTKTVQ [E3N]	1.96
FVLDSFDPNINPTIGASFMTKTVQ [E3L]	1.78
FVFDSFDPNINPTIGASFMTKTVQ [E3F]	2.57
FVHDSFDPNINPTIGASFMTKTVQ [E3H]	2.26
FVADSFDPNINPTIGASFMTKTVQ [E3A]	1.93
FVKDSFDPNINPTIGASFMTKTVQ [E3K]	1.88
FVDDSFDPNINPTIGASFMTKTVQ [E3D]	2.49
FVSDSFDPNINPTIGASFMTKTVQ [E3S]	2.8
FVTDSFDPNINPTIGASFMTKTVQ [E3T]	1.57
FVMDSFDPNINPTIGASFMTKTVQ [E3M]	1.84
FVCDSFDPNINPTIGASFMTKTVQ [E3C]	1.59

Variant	protein stability index
FVGDSFDPNINPTIGASFMTKTVQ [E3G]	1.49
FVVDSFDPNINPTIGASFMTKTVQ [E3V]	1.75
FVQDSFDPNINPTIGASFMTKTVQ [E3Q]	1.75
FVYDSFDPNINPTIGASFMTKTVQ [E3Y]	1.75
FVWDSFDPNINPTIGASFMTKTVQ [E3W]	1.72
FVIDSFDPNINPTIGASFMTKTVQ [E3I]	1.88
FVPDSFDPNINPTIGASFMTKTVQ [E3P]	2.95
KVEDSFDPNINPTIGASFMTKTVQ [F1K]	4.2
SVEDSFDPNINPTIGASFMTKTVQ [F1S]	3.98
RVEDSFDPNINPTIGASFMTKTVQ [F1R]	4.24
CVEDSFDPNINPTIGASFMTKTVQ [F1C]	3.75
MVEDSFDPNINPTIGASFMTKTVQ [F1M]	3.61
WVEDSFDPNINPTIGASFMTKTVQ [F1W]	3.41
NVEDSFDPNINPTIGASFMTKTVQ [F1N]	4.44
IVEDSFDPNINPTIGASFMTKTVQ [F1I]	3.72
EVEDSFDPNINPTIGASFMTKTVQ [F1E]	4.66
DVEDSFDPNINPTIGASFMTKTVQ [F1D]	4.45
VVEDSFDPNINPTIGASFMTKTVQ [F1V]	3.79
HVEDSFDPNINPTIGASFMTKTVQ [F1H]	4.25
GVEDSFDPNINPTIGASFMTKTVQ [F1G]	4.4
AVEDSFDPNINPTIGASFMTKTVQ [F1A]	4.1
TVEDSFDPNINPTIGASFMTKTVQ [F1T]	4.36
QVEDSFDPNINPTIGASFMTKTVQ [F1Q]	4.25

Variant	protein stability index
LVEDSFDPNINPTIGASFMTKTVQ [F1L]	3.51
PVEDSFDPNINPTIGASFMTKTVQ [F1P]	4.42
YVEDSFDPNINPTIGASFMTKTVQ [F1Y]	2.91
FFEDSFDPNINPTIGASFMTKTVQ [V2F]	2.89
FTEDSFDPNINPTIGASFMTKTVQ [V2T]	3.68
FKEDSFDPNINPTIGASFMTKTVQ [V2K]	3.69
FSEDSFDPNINPTIGASFMTKTVQ [V2S]	3.99
FHEDSFDPNINPTIGASFMTKTVQ [V2H]	3.61
FWEDSFDPNINPTIGASFMTKTVQ [V2W]	2.51
FAEDSFDPNINPTIGASFMTKTVQ [V2A]	3.54
FEEDSFDPNINPTIGASFMTKTVQ [V2E]	3.95
FREDSFDPNINPTIGASFMTKTVQ [V2R]	3.48
FNEDSFDPNINPTIGASFMTKTVQ [V2N]	3.62
FPEDSFDPNINPTIGASFMTKTVQ [V2P]	4.33
FYEDSFDPNINPTIGASFMTKTVQ [V2Y]	3.19
FQEDSFDPNINPTIGASFMTKTVQ [V2Q]	3.8
FLEDSFDPNINPTIGASFMTKTVQ [V2L]	3.29
FMEDSFDPNINPTIGASFMTKTVQ [V2M]	3.62
FIEDSFDPNINPTIGASFMTKTVQ [V2I]	2.81
FCEDSFDPNINPTIGASFMTKTVQ [V2C]	3.14
FGEDSFDPNINPTIGASFMTKTVQ [V2G]	3.77
FDEDSFDPNINPTIGASFMTKTVQ [V2D]	4.03

Variants of: B2
Assay: as above
Conditions: c terminus: a fixed tail appended

Variant	protein stability index
SKPKTIQAYLDDCHRRYSCAHCRA [F6I]	2.17
SKPKTMQAYLDDCHRRYSCAHCRA [F6M]	2.94
SKPKTTQAYLDDCHRRYSCAHCRA [F6T]	3.23

Source: the supplement of paper PMC10567573
